From patent CN113817063A (XIAMEN INNOBIOMAX BIOTECHNOLOGY CO LTD, dated 2021) come the findings set out here.

One experiment has as its target T1, DP1 (DCP 1-15 15肽) (human).
T1 peptide: ANTFLEEVRKGNLER
The experiment is described as follows: peptide competition ELISA on coated 抗原1. Background: ELISA stands for enzyme-linked immunosorbent assay.

The next experiment addresses T2, DP2 (DCP 11-25 15肽) (human).
T2 peptide: GNLERECVEETCSYE
The experiment is described as follows: peptide competition ELISA on coated 抗原1.

The target in a further experiment is T3, DP3 (DCP 21-35 15肽) (human).
T3 peptide: TCSYEEAFEALESST
Put plainly: peptide competition ELISA on coated 抗原1.

In a further experiment the target is T4, DP5 (DCP 41-55 15肽) (human).
T4 peptide: WAKYTACETARTPRD
Put plainly: peptide competition ELISA on coated 抗原1.

For experiment [1], the target named is T5, DP42 (DCP 32-39 8肽) (human).
T5 peptide: ESSTATDV
The experiment is described as follows: 8-mer peptide competition ELISA on coated 抗原1.

The target in experiment [2] is T6, DP45 (DCP 35-42 8肽) (human).
T6 peptide: TATDVFWA
Put plainly: 8-mer peptide competition ELISA on coated 抗原1.

The target in experiment [3] is T7, DP46 (DCP 36-43 8肽) (human).
T7 peptide: ATDVFWAK
Put plainly: 8-mer peptide competition ELISA on coated 抗原1.

The target in experiment [4] is T8, DP47 (DCP 37-44 8肽) (human).
T8 peptide: TDVFWAKY
The experiment is described as follows: 8-mer peptide competition ELISA on coated 抗原1.

The target in experiment [5] is T9, DP48 (DCP 38-45 8肽) (human).
T9 peptide: DVFWAKYT
The experiment is described as follows: 8-mer peptide competition ELISA on coated 抗原1.

The target in experiment [6] is T10, DP41 (DCP 31-38 8肽) (human).
T10 peptide: LESSTATD
The experiment is described as follows: 8-mer peptide competition ELISA on coated 抗原1.

Experiment [7] addresses T11, 人异常凝血酶原 (Des-γ-carboxyprothrombin) (human, UniProt P00734 44-622, 第6，7，14，16，19，20，25，26，29和32位的Glu残基一个或多个羧化不全 (not fully gamma-carboxylated)).
T11 construct: also called DCP; PIVKA-II
Put plainly: sandwich ELISA, 11H8-3 capture, 10D9-1-HRP detection, DCP in controls and sera.

In experiment [8] the target is T5, DP42 (DCP 32-39 8肽). Put plainly: competition ELISA: 100ng/ml antibody pre-incubated with 50ug/ml 8-mer peptide, read on coated 抗原1.
A further experiment has as its target T12, DP43 (DCP 33-40 8肽) (human).
T12 peptide: SSTATDVF
The description is as above.

The target in a further experiment is T13, DP44 (DCP 34-41 8肽) (human).
T13 peptide: STATDVFW
The experiment is described as above.

Experiment [9] has as its target T6, DP45 (DCP 35-42 8肽). The description is as above.
Experiment [10] addresses T7, DP46 (DCP 36-43 8肽). The experiment is described as above.
Experiment [11] concerns the target T8, DP47 (DCP 37-44 8肽). The experiment is described as above.
The target in experiment [12] is T9, DP48 (DCP 38-45 8肽). Described as above.
The target in experiment [13] is T10, DP41 (DCP 31-38 8肽). The experiment is described as above.

B1: 抗人DCP单克隆抗体10D9-1 (antibody, IgG1, V domains shown)
VH: EVQLQQSGPELVKPGASVKMSCKASGYTFTSYVMHWVKQKPGQGLEWIGYIFPYNDVTEYNEKFKGKATLTSDKSSSTAYMELSSLTSEDSAVYYCARWGGRNYWGQGTSVTV
VL: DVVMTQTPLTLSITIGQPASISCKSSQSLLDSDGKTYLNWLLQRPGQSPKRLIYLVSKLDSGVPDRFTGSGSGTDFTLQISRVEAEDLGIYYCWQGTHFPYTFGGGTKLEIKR
notes: also called 抗人异常凝血酶原单克隆抗体; 10D9-1-HRP
Take B1: the binding result in the experiment with DP1 (DCP 1-15 15肽) was “no binding (tested: 判定标准为:大于90%以上显示有良好的竞争效果; 50ug/ml多肽)”; in the experiment with DP2 (DCP 11-25 15肽), “no binding (tested: 判定标准为:大于90%以上显示有良好的竞争效果; 50ug/ml多肽)”; in the experiment with DP3 (DCP 21-35 15肽), “no binding (tested: 判定标准为:大于90%以上显示有良好的竞争效果; 50ug/ml多肽)”; with DP5 (DCP 41-55 15肽), “no binding (tested: 判定标准为:大于90%以上显示有良好的竞争效果; 50ug/ml多肽)”; in the experiment with DP42 (DCP 32-39 8肽) [1], “no binding (tested: 50ug/ml多肽)”; in the experiment with DP45 (DCP 35-42 8肽) [2] it was “no binding (tested: 50ug/ml多肽)”. Besides, the binding result is listed as “no binding (tested: 50ug/ml多肽)” with DP46 (DCP 36-43 8肽) [3]; “no binding (tested: 50ug/ml多肽)” with DP47 (DCP 37-44 8肽) [4]; “no binding (tested: 50ug/ml多肽)” in the experiment with DP48 (DCP 38-45 8肽) [5]; “no binding (tested: 50ug/ml多肽)” in the experiment with DP41 (DCP 31-38 8肽) [6]; “binds” in experiment [7]. The “competition rate (对照样品OD值-检测样品OD值)/对照样品OD值” value in the experiment with DP42 (DCP 32-39 8肽) [8] was 10%; in the experiment with DP43 (DCP 33-40 8肽) it was 33%; in the experiment with DP44 (DCP 34-41 8肽) it was 29%; with DP45 (DCP 35-42 8肽) [9] it was -9%; with DP46 (DCP 36-43 8肽) [10], 4%; with DP47 (DCP 37-44 8肽) [11], 11%. Further, the results for the “competition rate (对照样品OD值-检测样品OD值)/对照样品OD值” value with DP48 (DCP 38-45 8肽) [12] and with DP41 (DCP 31-38 8肽) [13] were 10% and -2%, respectively.
